The text below walks through data of article PMC7432317, “Structural Analysis of the SANT/Myb Domain of FLASH and YARP Proteins and Their Complex with the C-Terminal Fragment of NPAT by NMR Spectroscopy and Computer Simulations” (International Journal of Molecular Sciences, 2020).

The test addresses T1, C-terminal fragment of FLICE-associated huge protein (FLASH), residues 1923-1982 (human, UniProt Q9UKL3 1923-1982).
T1 construct: FLASH (FLICE-associated huge protein), residues 1923-1982; residue 1982 is the C-terminal amino acid of the protein; Uniformly 15N- or 13C,15N-labelled for NMR; also called FLASH fragment; SANT/Myb domain of FLASH; source: E. coli BL21 (DE3), pET28a, minimal M9 media, purified (nickel beads, SEC Superdex 75)
T1 sequence (looked up): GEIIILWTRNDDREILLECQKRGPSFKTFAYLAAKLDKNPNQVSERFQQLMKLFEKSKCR
The experiment in a line: NMR titration; 1H-15N HSQC of 15N-labelled FLASH fragment (300 uM) with step-wise addition of the NPAT peptide (150 uM, two fold molar excess of FLASH analysed; equimolar mixtures precipitated); 25 mM TRIS-HCl, 200 mM KCl, pH 6.2, 50 mM Arg+Glu, 40 mM TCEP, 298 K. Conditions: both partners purified.

B1: NPAT peptide, the last 31 residues of NPAT (1397-1427) (peptide)
peptide: KKKKIKKKKLPSSFPAGMDVDKFLLSLHYDE
notes: Free N-terminus, carboxyl at C-terminus; also called C-terminal NPAT peptide; source: synthetic peptide (Fmoc solid phase synthesis, RP-HPLC purified)
Regarding B1, the binding result is reported as “binds”.
